Consider two molecules from EP0480381A1 (NIPPON CHEMIPHAR CO., LTD., dated 1992).

In this assay the target is T1, rat endothelin receptor (rat).
T1 sequence (P26684 whole entry, looked up): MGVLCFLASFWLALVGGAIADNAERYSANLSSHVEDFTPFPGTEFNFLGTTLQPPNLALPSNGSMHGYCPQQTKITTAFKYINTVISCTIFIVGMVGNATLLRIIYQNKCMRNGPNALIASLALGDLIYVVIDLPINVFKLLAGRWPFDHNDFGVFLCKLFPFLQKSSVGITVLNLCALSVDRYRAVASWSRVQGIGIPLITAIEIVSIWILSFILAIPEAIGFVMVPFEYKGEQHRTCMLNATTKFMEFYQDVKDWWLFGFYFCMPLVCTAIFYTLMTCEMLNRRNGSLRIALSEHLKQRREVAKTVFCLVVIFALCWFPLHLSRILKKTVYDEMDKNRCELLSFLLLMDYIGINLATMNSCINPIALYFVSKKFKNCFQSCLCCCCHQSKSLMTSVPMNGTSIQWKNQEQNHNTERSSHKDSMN
In words: cell-based or functional assay.

For the molecule CSCSSLMDKECVYFCHLDIIW (peptide, UniProt P05305 53-73, looked up) [endothelin-1], the “increase of calcium concentration in cytoplasm (fura-2), EC50” value was ~0.02 nM.
To CTCFTYKDKECVYYCHLDIIW (peptide, UniProt P14138 97-117, looked up) [endothelin-3] belongs ~0.02 nM.
